# Reference: patent US20150274841A1
# B1: M0162-A04 (Fab, V domains shown)
# VH: EVQLLESGGGLVQPGGSLRLSCAASGFTFSHYIMMWVRQAPGKGLEWVSGIYSSGGITVYADSVKGRFTISRDNSKNTLYLQMNSLRAEDTAVYYCAYRRTGIPRRDAFDIWGQGTMVTVSS
# VL: DIQMTQSPSTLSASVGDRVTITCRASQSISSWLAWYQQKPGKAPNLLIYKASTLESGVPSRFSGSGSGTEFTLTISSLQPDDFATYYCQQYNTYWTFGQGTKVEIK
# How the values were obtained:
# [1] = biological target: human plasma kallikrein (PKal) (human), P03952; assay: Ki,app; Fab inhibition of PKal cleavage of a substrate peptide, Morrison fit; details: remark: other sources report otherwise
# Chain of human plasma kallikrein (PKal) (human), P03952 (P03952 20-638 limits assumed): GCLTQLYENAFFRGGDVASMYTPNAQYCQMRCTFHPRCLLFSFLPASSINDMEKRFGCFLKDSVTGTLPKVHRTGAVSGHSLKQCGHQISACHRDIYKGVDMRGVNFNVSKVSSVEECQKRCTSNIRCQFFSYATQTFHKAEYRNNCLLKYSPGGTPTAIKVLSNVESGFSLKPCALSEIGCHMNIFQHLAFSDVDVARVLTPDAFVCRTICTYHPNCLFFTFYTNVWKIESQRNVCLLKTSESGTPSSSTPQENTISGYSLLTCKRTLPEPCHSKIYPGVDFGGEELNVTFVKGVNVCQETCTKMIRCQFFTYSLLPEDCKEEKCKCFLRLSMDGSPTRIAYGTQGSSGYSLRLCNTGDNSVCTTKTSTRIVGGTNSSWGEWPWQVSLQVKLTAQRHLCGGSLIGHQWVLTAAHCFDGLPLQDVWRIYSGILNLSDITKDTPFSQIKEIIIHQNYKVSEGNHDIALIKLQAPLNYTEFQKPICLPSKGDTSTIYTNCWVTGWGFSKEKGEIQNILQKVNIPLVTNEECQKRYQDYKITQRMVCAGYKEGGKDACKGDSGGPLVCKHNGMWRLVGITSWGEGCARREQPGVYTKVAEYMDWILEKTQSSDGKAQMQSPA
# [2] = biological target: human plasma kallikrein (PKal) (human), P03952; assay: enzyme inhibition assay: rate (F/s) of substrate peptide cleavage by PKal against [Fab] (nM), fitted to the Morrison equation; apparent Ki (Ki,app); Table 3 prints 2.5 nM; details: remark: other sources report otherwise
binder,measurement,setting,value
B1,Ki,[1],2.5 nM
same,Ki,[2],6.54 nM
